In US20230090771A1 (REGENTS OF THE UNIVERSITY OF MINNESOTA, published 2023):

What was measured:
[1] = molecular target: T1, his6-SonA, split borosin precursor SonA (Shewanella oneidensis) with N-terminal hexa-histidine tag, co-expressed with SonM
T1 chain: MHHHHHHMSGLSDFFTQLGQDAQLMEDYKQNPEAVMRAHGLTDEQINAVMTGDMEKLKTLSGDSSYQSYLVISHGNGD

[2] = molecular target: T2, his6-SonA, split borosin precursor SonA (Shewanella oneidensis) with N-terminal hexa-histidine tag, … (Shewanella oneidensis, alpha-N-methylations on L63 and I65 (the vast majority purified in the 2-alpha-N-methylated state)); experiment: co-purification of untagged SonM with his6-SonA by nickel affinity and size exclusion chromatography, SDS-PAGE
T2 construct: This complex was used for crystallisation; also called WP_011071666
T2 chain: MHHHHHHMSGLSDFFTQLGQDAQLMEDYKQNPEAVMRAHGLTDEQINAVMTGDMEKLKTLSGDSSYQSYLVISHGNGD

[3] = molecular target: T3, his6-SonA (Shewanella oneidensis), expressed alone as substrate for kinetics
T3 chain: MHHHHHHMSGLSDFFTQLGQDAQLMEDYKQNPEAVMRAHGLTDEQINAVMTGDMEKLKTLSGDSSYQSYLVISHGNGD

Binder | MS1 alpha-N-methylation profile of SonA co-purified with SonM [1] | binding result [2] | substrate turnover (coupled-enzyme Michaelis-Menten kinetics) [3]
split borosin alpha-N-methyltransferase SonM (Shewanella oneidensis), untagged, co-expressed with his6-SonA (enzyme, also called WP_011071665) MGSLVCVGTGLQLAGQISVLSRSYIEHADIVFSLLPDGFSQRWLTKLNPNVINLQQFYAQNGEVKNRRDTYEQMVNAILDAVRAGKKTVCALYGHPGVFACVSHMAITRAKAEGFSAKMEPGISAEACLWADLGIDPGNSGHQSFEASQFMFFNHVPDPTTHLLLWQIAIAGEHTLTQFHTSSDRLQILVEQLNQWYPLDHEVVIYEAANLPIQAPRIERLPLANLPQAHLMPISTLLIPPAKKLEYNYAILAKLGIGPEDLG | the vast majority of SonA is purified as the 2-alpha-N-methylated state | binds | 
his6-SonM wild type (Shewanella oneidensis), expressed alone for kinetics (protein) MHHHHHHSSMGSLVCVGTGLQLAGQISVLSRSYIEHADIVFSLLPDGFSQRWLTKLNPNVINLQQFYAQNGEVKNRRDTYEQMVNAILDAVRAGKKTVCALYGHPGVFACVSHMAITRAKAEGFSAKMEPGISAEACLWADLGIDPGNSGHQSFEASQFMFFNHVPDPTTHLLLWQIAIAGEHTLTQFHTSSDRLQILVEQLNQWYPLDHEVVIYEAANLPIQAPRIERLPLANLPQAHLMPISTLLIPPAKKLEYNYAILAKLGIGPEDLG |  |  | SonM wild type (WT) and several active-site mutants reveal multiple SonA substrate turnover
SonM mutant Y93F (protein) MHHHHHHSSMGSLVCVGTGLQLAGQISVLSRSYIEHADIVFSLLPDGFSQRWLTKLNPNVINLQQFYAQNGEVKNRRDTYEQMVNAILDAVRAGKKTVCALFGHPGVFACVSHMAITRAKAEGFSAKMEPGISAEACLWADLGIDPGNSGHQSFEASQFMFFNHVPDPTTHLLLWQIAIAGEHTLTQFHTSSDRLQILVEQLNQWYPLDHEVVIYEAANLPIQAPRIERLPLANLPQAHLMPISTLLIPPAKKLEYNYAILAKLGIGPEDLG |  |  | SonM wild type (WT) and several active-site mutants reveal multiple SonA substrate turnover
SonM mutant Y58F (protein) MHHHHHHSSMGSLVCVGTGLQLAGQISVLSRSYIEHADIVFSLLPDGFSQRWLTKLNPNVINLQQFFAQNGEVKNRRDTYEQMVNAILDAVRAGKKTVCALYGHPGVFACVSHMAITRAKAEGFSAKMEPGISAEACLWADLGIDPGNSGHQSFEASQFMFFNHVPDPTTHLLLWQIAIAGEHTLTQFHTSSDRLQILVEQLNQWYPLDHEVVIYEAANLPIQAPRIERLPLANLPQAHLMPISTLLIPPAKKLEYNYAILAKLGIGPEDLG |  |  | SonM wild type (WT) and several active-site mutants reveal multiple SonA substrate turnover
SonM mutant R67K (protein) MHHHHHHSSMGSLVCVGTGLQLAGQISVLSRSYIEHADIVFSLLPDGFSQRWLTKLNPNVINLQQFYAQNGEVKNKRDTYEQMVNAILDAVRAGKKTVCALYGHPGVFACVSHMAITRAKAEGFSAKMEPGISAEACLWADLGIDPGNSGHQSFEASQFMFFNHVPDPTTHLLLWQIAIAGEHTLTQFHTSSDRLQILVEQLNQWYPLDHEVVIYEAANLPIQAPRIERLPLANLPQAHLMPISTLLIPPAKKLEYNYAILAKLGIGPEDLG |  |  | SonM wild type (WT) and several active-site mutants reveal multiple SonA substrate turnover
SonM mutant Y71F (protein) MHHHHHHSSMGSLVCVGTGLQLAGQISVLSRSYIEHADIVFSLLPDGFSQRWLTKLNPNVINLQQFYAQNGEVKNRRDTFEQMVNAILDAVRAGKKTVCALYGHPGVFACVSHMAITRAKAEGFSAKMEPGISAEACLWADLGIDPGNSGHQSFEASQFMFFNHVPDPTTHLLLWQIAIAGEHTLTQFHTSSDRLQILVEQLNQWYPLDHEVVIYEAANLPIQAPRIERLPLANLPQAHLMPISTLLIPPAKKLEYNYAILAKLGIGPEDLG |  |  | SonM wild type (WT) and several active-site mutants reveal multiple SonA substrate turnover
